Experimental data from patent US20170044545.

Biological target: Autotaxin (ENPP2, NPP2) (Homo sapiens) (UniProt Q13822)
Assay: inhibition
Settings: 2'-F pyrimidines, 2'-OH purines

Row | Sequence | IC50 [nM]
1 | GUACGAAGACGCAUCUCACNNNNNNNNNNNNNNNNNNNNNNNNNNNNNNNNNNNNNNNNGUUCCAUGUCCUGUUGCCACCC [40N RNA pool] | > 1000
2 | CGGAUACGUCUCACUUCGUCNNNNNNNNNNNNNNNNNNNNNNNNNNNNNNCAGAGCGUUUAGAGUGCGGUCCC [30N RNA pool] | > 1000
